Data on 2 molecules can be found in publication doi:10.1101/868190 (bioRxiv, 2019).

The target of this assay is T1, His-hPPARγ (231-505) ligand-binding domain, wild-type (human, UniProt P37231-1 231-505).
T1 sequence: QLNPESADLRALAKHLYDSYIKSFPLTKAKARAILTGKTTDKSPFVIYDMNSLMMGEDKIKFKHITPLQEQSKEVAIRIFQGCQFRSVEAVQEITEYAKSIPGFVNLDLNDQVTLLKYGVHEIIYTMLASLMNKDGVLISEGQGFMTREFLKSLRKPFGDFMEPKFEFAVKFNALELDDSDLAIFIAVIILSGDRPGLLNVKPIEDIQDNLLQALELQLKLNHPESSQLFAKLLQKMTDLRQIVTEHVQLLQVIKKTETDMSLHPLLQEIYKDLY
In words: MST.

Ends that are not written are not given here.

On to NLGLEDIIRKALMG (also: fluorescent label, dye and position not given here) [fluorescent NCoR1 peptide (2260-NLGLEDIIRKALMG-2273)], for which the binding result is reported as “binds”.
On to EAEEPSLLKKLLLAPA (also: fluorescent label, dye and position not given here) [fluorescent PGC1α peptide (137-EAEEPSLLKKLLLAPA-152)], for which the binding result was “binds”.
